Patent publication US20060233808A1 (published 2006)

Molecular target: T1, EGF receptor on human A431 cancer cells (human, UniProt P00533 25-1210)
T1 construct: whole, on cells; also called epidermal growth factor receptor; ErbB1
Test: competition assay on A431 cells, Mab425 fixed at 6.67 nM as competitor, Peptabody EGF 0.1 to 200 nM

- binding result: binds
B1: Peptabody EGF (designed binder)
chain: MYSFEDLASHHHHHHGDLGPQMLRELQETNAALQDVRDYLRQLVREITFLKNTVMECDACGMQQTSPPTPPTPSPSTPPTPSPRSNSDSECPLSHDGYCLHDGVCMYIEALDKYACNCVVGYIGERCQYRDLKWWELR
notes: also called p-EGF; P-EGF
